Like-named read-outs stand apart in the source and are kept apart here.
Assays:
[1] = biological target: T1, CaBdf1 BD1 (Candida albicans, UniProt Q5A4W8); format: binding; settings: wild-type BD1; for CaBdf1 BD1 Normalized (0 to 100%) WT: normalized array signal; for CaBdf1 BD1 Raw data WT: peptide array signal;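 on CaBdf1 BD1 Normalized (0 to 100%) WT: normalized to spotted c-myc peptide positive control signal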
T1 construct: made in house; host or cells: E. coli BL21(DE3)
T1 sequence (Q5A4W8 whole entry, looked up): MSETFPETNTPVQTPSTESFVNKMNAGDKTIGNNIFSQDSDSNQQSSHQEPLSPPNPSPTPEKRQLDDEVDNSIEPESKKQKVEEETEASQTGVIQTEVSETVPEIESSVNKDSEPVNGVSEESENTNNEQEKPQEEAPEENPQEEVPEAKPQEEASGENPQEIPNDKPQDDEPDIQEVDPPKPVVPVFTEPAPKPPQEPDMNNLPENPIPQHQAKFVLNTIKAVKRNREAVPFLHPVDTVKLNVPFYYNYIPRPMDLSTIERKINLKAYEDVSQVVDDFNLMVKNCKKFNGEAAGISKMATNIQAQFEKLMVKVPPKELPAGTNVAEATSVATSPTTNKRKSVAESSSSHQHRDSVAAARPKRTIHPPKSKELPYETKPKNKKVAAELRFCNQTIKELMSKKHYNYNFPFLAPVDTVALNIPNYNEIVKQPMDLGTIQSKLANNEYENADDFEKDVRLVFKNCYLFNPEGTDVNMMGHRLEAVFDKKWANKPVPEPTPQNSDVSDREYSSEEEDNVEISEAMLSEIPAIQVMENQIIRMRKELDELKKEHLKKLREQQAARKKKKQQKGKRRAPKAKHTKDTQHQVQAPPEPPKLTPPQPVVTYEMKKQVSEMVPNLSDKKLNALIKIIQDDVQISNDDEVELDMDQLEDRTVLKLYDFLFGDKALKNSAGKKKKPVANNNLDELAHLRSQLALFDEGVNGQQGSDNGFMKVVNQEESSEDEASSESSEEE
Protocol: (§1) In short, arrays were blocked and incubated with 1 μM of purified CaBdf1 BD1 or BD2. Arrays were incubated with recombinant BDs for 2 h at 4 °C in binding buffer (Tris-HCl 50 mM pH 7.4, NP-40 0.1%, NaCl 150 mM, glycerol 10%). […] Assays were performed in duplicate.

[2] = biological target: T2, CaBdf1 BD2 (Candida albicans, UniProt Q5A4W8); format: binding; settings: wild-type BD2; for CaBdf1 BD2 Normalized (0 to 100%) WT: normalized array signal; for CaBdf1 BD2 Raw data WT: peptide array signal;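 on CaBdf1 BD2 Normalized (0 to 100%) WT: normalized to spotted c-myc peptide positive control signal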
T2 construct: made in house; host or cells: E. coli BL21(DE3)
T2 sequence (Q5A4W8 whole entry, looked up): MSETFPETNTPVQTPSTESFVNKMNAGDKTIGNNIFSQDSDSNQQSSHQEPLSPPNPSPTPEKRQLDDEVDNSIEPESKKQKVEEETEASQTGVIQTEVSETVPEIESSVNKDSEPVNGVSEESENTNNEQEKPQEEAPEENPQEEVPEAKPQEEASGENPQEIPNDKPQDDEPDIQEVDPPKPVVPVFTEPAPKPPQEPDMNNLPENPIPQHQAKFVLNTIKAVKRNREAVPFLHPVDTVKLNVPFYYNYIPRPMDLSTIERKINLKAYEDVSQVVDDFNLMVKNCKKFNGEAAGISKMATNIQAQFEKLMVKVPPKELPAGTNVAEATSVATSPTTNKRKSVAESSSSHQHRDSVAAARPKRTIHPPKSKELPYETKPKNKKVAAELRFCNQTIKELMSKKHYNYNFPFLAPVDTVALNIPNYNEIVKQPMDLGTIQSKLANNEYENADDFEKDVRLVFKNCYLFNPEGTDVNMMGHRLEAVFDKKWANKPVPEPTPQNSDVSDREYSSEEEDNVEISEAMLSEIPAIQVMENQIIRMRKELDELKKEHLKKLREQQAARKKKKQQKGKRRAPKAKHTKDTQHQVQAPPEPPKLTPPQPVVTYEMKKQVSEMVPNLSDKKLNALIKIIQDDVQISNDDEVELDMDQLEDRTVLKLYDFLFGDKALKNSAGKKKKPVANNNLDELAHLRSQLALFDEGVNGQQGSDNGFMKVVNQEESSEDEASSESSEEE
Protocol: as §1

[3] = biological target: T3, CaBdf1 BD2 Y425F (Candida albicans, UniProt Q5A4W8, Y425F); assay: Histone peptide microarray binding, YF mutant;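 on CaBdf1 BD2 Normalized (0 to 100%) YF mutant: normalized to spotted c-myc peptide positive control signal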; set-up: species or system C. albicans; settings: YF mutant BD2; for CaBdf1 BD2 Normalized (0 to 100%) YF mutant: normalized array signal; for CaBdf1 BD2 Raw data YF mutant: peptide array signal
T3 construct: made in house; host or cells: E. coli BL21(DE3), inferred from the wild-type GST construct
Protocol: as §1, with “duplicate. Images were acquired on a Bio-Rad ChemiDoc XRS Imaging machine and data were quantified using the array analyser software provided by Active Motif.” for “duplicate.”

[4] = biological target: T4, CaBdf1 BD1 Y248F (Candida albicans, UniProt Q5A4W8, Y248F); assay: Histone peptide microarray binding, YF mutant;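 on CaBdf1 BD1 Normalized (0 to 100%) YF mutant: normalized to spotted c-myc peptide positive control signal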; set-up: species or system C. albicans; settings: YF mutant BD1; for CaBdf1 BD1 Normalized (0 to 100%) YF mutant: normalized array signal; for CaBdf1 BD1 Raw data YF mutant: peptide array signal
T4 construct: made in house; host or cells: E. coli BL21(DE3), inferred from the wild-type GST construct
Protocol: as §1, with “duplicate. Images were acquired on a Bio-Rad ChemiDoc XRS Imaging machine and data were quantified using the array analyser software provided by Active Motif.” for “duplicate.”

T4 sequence (Q5A4W8 193-327 Y248F): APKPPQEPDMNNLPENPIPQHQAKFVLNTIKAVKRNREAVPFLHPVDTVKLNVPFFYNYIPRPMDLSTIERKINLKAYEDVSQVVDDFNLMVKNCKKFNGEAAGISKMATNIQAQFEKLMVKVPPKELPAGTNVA
T3 sequence (Q5A4W8 361-501 Y425F): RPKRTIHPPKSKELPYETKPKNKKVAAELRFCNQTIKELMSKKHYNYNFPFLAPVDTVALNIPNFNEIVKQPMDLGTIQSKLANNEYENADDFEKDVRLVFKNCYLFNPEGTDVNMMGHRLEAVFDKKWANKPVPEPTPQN

Sequence	CaBdf1 BD1 Normalized (0 to 100%) WT [1] [%]	CaBdf1 BD1 Raw data WT ([1]; first of two raw-data columns)	CaBdf1 BD1 Raw data WT [1]	CaBdf1 BD2 Normalized (0 to 100%) WT [2] [%]	CaBdf1 BD2 Raw data WT ([2]; first of two raw-data columns)	CaBdf1 BD2 Raw data WT [2]	CaBdf1 BD2 Normalized (0 to 100%) YF mutant [3] [%]	CaBdf1 BD2 Raw data YF mutant ([3]; first of two raw-data columns)	CaBdf1 BD2 Raw data YF mutant [3]	CaBdf1 BD1 Normalized (0 to 100%) YF mutant [4] [%]	CaBdf1 BD1 Raw data YF mutant ([4]; first of two raw-data columns)	CaBdf1 BD1 Raw data YF mutant [4]
A Rme2a T Kme2 Q T A R Kme2 S T G G K A P R K Q	0.399	0.00481	0.00481	0.222	0.0151	0.0006863	0.0977	0.0009709	0.002427	0.727	0.007202	0.002401
A Rme2a T Kme2 Q T A Rme2a K S T G G K A P R K Q	0.508	0.007483	0.003741	0.444		0.01098	0.293		0.002427	0.727	0.007202	0.003086
A Rme2a T Kme3 Q T A R Kac S T G G K A P R K Q	3.44	0.01924	0.03528	0.518	0.006177	0.0151	0.244	0.002427	0.002427	0.554	0.005487	0.004801
A Rme2a T Kme3 Q T A R Kme2 S T G G K A P R K Q	0.145	0.002672	0.003207	0.296	0.01579	0.001373	0.244	0.002427	0.003398	0.554	0.005487	0.006859
A Rme2a T Kme3 Q T A Rme2a K S T G G K A P R K Q	0.363	0.004276	0.00481	0.444	0.01098		0.293		0.002427	0.658	0.006516	0.004801
A Rme2s T Kac Q T A R Kme1 S T G G K A P R K Q	0.798	0.009621	0.005879	0.333	0.01304	0.004804	0.244	0.002427	0.002427	0.727	0.007202	0.002743
A Rme2s T Kac Q T A R Kme3 S T G G K A P R K Q	0.616	0.005879	0.006948	0.259	0.01579	0.0006863	0.293			0.727	0.007202	0.004458
A Rme2s T Kac Q T A Rme2s K S T G G K A P R K Q	0.363	0.003741	0.005345	0.518		0.01235	0.293		0.003398	0.485	0.004801	0.003086
